Data on 16 sequences can be found in the nanobody polyreactivity screen of Harvey et al. (2022).

A short description of this data set: yeast display, Sf9 membrane polyspecificity reagent, FACS + sequencing; frameworks hold sequencing errors. In a few lines:
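In a synthetic yeast display library (Saccharomyces cerevisiae BJ5465), nanobody expression was induced with galactose for 36–48 hours. FACS gates were set low and high (top ~1%) using anti-HA fluorescence for expression and streptavidin fluorescence for binding of the Sf9 membrane reagent. Each polyreactivity label is drawn from the gate of origin.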
As to “QVQLVESGGGLLQAGGSLRLSCAASGFIFDGYAMGWYRQAPGKERELVAAISSVGSTYYADSVKGRFTISRDNAKKTVYLQMNSLKPEDTAVYYCAAVRFYTYNYWGQGTQVTVSS”, the “polyreactivity (PSR sort gate)” value is “low polyreactivity”. Take “QVQLVESGGGLVQAGGSLRLSCAASGRTFYSNAMGWNRQAPGKERELVATITLSGGSTDYADSVKGRFTISRDNAKNTVYLQMNSLKPEDTAVYYCNADTDVHLIMGYWGQVTQVTVSS”: the “polyreactivity (PSR sort gate)” value is “low polyreactivity”.

On to “QVQLVESGGGLVQAGGSLRLSCAASGSTFYNNAMGWYRQAPGKERELVAAISSGGGTYYADSVKGRFTISRDNAKNTVYLQMNSLKPEDTAVYYCAADFANTTHWGRIKRYDYWGQGTQVTVSS”, for which the “polyreactivity (PSR sort gate)” value was “low polyreactivity”. Turning to “QVQLVESGGGLVQAGGSLRLSCAASGSTFAGNAIGWYRQAPGKERELVAAIDSSTGSTYYADSVKGRFTISRDNAKNTVFLQMNSLKPEDTAVYYCNKTSFLVNLDYWGQGTQVTVSS”, the “polyreactivity (PSR sort gate)” value is on record as “low polyreactivity”. As for “QVQLVESGGGLVQAGGSLRLSCAASGFTFYTNVMGWYIQAPGKERELVAAINSGGSTNYADSVKGRFTISRDNAKNTVYLQMNSLKPEDTAVYYCNKRGTEIGYDYWGQGTQVTVLS”, the “polyreactivity (PSR sort gate)” value is recorded as “low polyreactivity”. For the sequence “QVQLVESGGGLVQAGGSLRLSCAASGLILGYYAMGWYRQAPGKERELVATIRRGASTFYADSVKGRFTISRDNAKNTVYLQLNSLKPEDTAVYYCAADTERSLAGGLYYWGQGTQVNVSS”, the “polyreactivity (PSR sort gate)” value is “low polyreactivity”. Next, “QVQLVESGGGLVQAGGSLRLSCAASGFTFHYYAMGWYRQAPGKERELVAAISSSGGNTYYADSVKGRFTISRDNAKNTVYLQMNSLKPEDTEVYYCNAYSFFLGGYDYWGQGTQVTVSS”: “high polyreactivity”. Next, “QVQLEESGGGLVQAGGSLRLSCAASGSTFVYYAMGWYRQSPGKERELVAAISRGGGSTYYADSVKGRFTISRDNAKNTVYLQMNSLKPEDTAVYYCAAVAGYRYYWGQGTQVTVSS”: “high polyreactivity”; “QVQLEESGGGLVQAGGSLRLSCAASGRIFVNYDMGSDRQAPGKERELVADISISGSTDYADSVKGRFTISRDNAKNTVYLQMNSLKPEDTAVYYCATSFYVSDYYVPYEMGYWGQGTQVTVSS”: “low polyreactivity”. Consider “QVQLVESGGGLVQAGGSLRLSCAASGSTFGANAMGWYRQAPGKERELVAAITRGVRTHYADSVKGRFTISRDNAKNTVYLQMNSLKPEDTAVYYCNARSYPRWLRYDYWGQGTQVTVSS”, for which the “polyreactivity (PSR sort gate)” value is recorded as “low polyreactivity”. As for “QVQLVESGGGLVQAGGSLRLSCAASGRIFDDNAMGWYRQAPGKERELVAAISSGDSTKYADSVKGRFTISRDNAKNTVYLQMNSLKPEDTAVYYCNRRKTNSRYDYWGQGTQVTVSS”, the “polyreactivity (PSR sort gate)” value was “low polyreactivity”. Take “QVQLVESGGGLVQAGGSLRLSCAASGSTLGLNAMGWYRHAPRKEREFVAAISQGGTRTYYADSVKGRLTNSRDNAKNCVYLQMNSLKPEDTAVYYCAALRHRTRAASGGDYWGQGTQVNVSS”: the “polyreactivity (PSR sort gate)” value is given as “high polyreactivity”. Consider “QVQLVESGGGLVQAGGSLRLTCAASGFIFQYYAMGWYRQAPGKEREFVAAISSSGTSTYYADSVKGRFTISRDNAKNTVYLQMNSLKPEDTAVYYCAAREAGLYWLYYPGLRYYYWGQGTQVTVSS”, for which the “polyreactivity (PSR sort gate)” value is given as “high polyreactivity”. Next, “QVQLEEAGGGLVQAGGSLRLRCAASGRTFWYYAMGWYRQAPGKERELVAAITSGGSTNYADSVKGRFTISRDNEKNTVYLQMNSLKPEDTAVYYCAKLFRKRRSWDWYDYWGQGTQVTVSS”: “high polyreactivity”; “QVQLVESGGGLVQAGGSLRLSCAASGRTFEQNVMGWYRQAPGTERELVAAITTGGSTNYADSVKGRFTISRDNAKNTVYLQMNSLKPEDTAVYYCAADRYLGGDYDYWGQGTQVTVSS”: “low polyreactivity”.

Turning to “QVQLVESGGGLVQAGGSLRLSCAASGFTFDFYAMGWYRQAPGKERELVAAISKNDGTTYYADSVKGRFTISRDNAKNTVYLQMNSLKPEDTAVYYCAADVELWVFRGQQYDYWGQGTQVTVSS”, the “polyreactivity (PSR sort gate)” value is given as “low polyreactivity”.
